The source of these data is paper PMC11009657 (Proceedings of the National Academy of Sciences of the …, 2024).

As a reminder, the stoichiometry N is the number of molecules, sites or subunits per partner or assembly.

Data set [1] concerns the target tau extracted from Alzheimer brain samples (human (endogenous in Alzheimer brain)). The data set can be described thus: sarkosyl extraction and Western blot.
Data set [2] deals with the molecule itself. The data set can be described thus: ThT fluorescence + TEM.

tau extracted from Alzheimer brain samples (natural protein), sequence (P10636 2-758): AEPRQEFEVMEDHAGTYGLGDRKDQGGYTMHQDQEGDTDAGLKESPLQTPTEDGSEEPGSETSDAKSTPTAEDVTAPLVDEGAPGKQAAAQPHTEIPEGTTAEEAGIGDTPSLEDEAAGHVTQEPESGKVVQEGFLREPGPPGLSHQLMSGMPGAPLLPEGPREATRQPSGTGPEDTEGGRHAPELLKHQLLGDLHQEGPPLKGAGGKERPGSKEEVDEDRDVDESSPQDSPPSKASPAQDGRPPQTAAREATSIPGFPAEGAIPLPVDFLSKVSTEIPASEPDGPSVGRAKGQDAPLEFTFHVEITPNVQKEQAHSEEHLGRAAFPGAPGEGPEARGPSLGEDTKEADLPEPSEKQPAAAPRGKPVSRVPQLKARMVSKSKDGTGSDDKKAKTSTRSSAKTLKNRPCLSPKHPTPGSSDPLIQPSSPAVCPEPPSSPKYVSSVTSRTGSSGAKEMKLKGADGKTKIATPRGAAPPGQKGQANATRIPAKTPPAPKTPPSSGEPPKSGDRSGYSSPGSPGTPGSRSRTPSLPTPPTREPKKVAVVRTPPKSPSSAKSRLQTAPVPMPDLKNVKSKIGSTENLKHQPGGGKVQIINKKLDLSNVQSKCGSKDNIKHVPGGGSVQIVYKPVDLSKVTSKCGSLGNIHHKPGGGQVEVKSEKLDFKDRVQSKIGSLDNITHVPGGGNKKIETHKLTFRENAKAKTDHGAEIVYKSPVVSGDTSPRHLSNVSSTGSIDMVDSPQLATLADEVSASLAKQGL

As for “tau extracted from Alzheimer brain samples (natural protein)”, the stoichiometry N in data set [1] was 6. DNIKHVPGGGSVQIVYKPV [jR2R3]: in data set [2], the binding result is listed as “binds”.
